Measured values: publication PMC3712289 (Nature structural & molecular biology, 2013)

Experiments:
Experiment in all cases: cryo-EM structure
Rpt4 = target: T1, Rpt4 (S. cerevisiae, UniProt P53549 1-437)
T1 sequence (looked up): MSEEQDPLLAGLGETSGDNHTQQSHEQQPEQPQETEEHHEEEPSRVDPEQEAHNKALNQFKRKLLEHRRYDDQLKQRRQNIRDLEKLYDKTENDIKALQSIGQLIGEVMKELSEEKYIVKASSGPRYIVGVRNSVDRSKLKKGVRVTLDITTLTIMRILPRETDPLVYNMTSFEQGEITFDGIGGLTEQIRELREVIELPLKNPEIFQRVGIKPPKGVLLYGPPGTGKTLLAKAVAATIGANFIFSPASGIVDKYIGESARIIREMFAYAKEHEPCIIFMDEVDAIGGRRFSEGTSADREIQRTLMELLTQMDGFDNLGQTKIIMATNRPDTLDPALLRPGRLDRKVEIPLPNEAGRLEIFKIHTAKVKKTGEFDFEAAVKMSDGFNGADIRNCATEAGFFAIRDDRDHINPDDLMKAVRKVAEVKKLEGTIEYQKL

Rpt5 = target: T2, Rpt5 (S. cerevisiae, UniProt P33297 1-434)
T2 sequence (looked up): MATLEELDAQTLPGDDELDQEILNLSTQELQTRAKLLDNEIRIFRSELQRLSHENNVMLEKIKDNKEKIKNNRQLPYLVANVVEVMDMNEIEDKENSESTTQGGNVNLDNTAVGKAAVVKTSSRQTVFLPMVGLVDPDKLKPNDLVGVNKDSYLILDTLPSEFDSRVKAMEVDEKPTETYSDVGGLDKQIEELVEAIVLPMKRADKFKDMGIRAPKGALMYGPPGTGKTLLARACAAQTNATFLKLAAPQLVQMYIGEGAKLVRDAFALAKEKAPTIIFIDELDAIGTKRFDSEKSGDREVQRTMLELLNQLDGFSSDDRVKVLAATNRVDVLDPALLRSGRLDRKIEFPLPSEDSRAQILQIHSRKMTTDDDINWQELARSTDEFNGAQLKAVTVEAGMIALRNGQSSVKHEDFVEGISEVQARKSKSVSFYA

Rpn6 = target: T3, Rpn6 (S. cerevisiae, UniProt Q12377 1-434)
T3 sequence (looked up): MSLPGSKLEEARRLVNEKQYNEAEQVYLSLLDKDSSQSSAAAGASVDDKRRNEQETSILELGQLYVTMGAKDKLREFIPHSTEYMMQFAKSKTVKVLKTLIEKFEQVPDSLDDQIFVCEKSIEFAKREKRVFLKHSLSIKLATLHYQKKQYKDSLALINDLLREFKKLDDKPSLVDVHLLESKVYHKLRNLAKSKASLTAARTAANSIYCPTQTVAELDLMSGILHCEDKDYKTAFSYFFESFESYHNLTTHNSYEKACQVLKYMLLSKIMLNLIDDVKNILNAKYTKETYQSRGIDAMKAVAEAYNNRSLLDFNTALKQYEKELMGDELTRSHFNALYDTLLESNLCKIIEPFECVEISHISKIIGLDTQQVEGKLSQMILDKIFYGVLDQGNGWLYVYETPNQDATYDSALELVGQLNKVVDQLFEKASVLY

Rpn5 = target: T4, Rpn5 (S. cerevisiae, UniProt Q12250 1-445)
T4 sequence (looked up): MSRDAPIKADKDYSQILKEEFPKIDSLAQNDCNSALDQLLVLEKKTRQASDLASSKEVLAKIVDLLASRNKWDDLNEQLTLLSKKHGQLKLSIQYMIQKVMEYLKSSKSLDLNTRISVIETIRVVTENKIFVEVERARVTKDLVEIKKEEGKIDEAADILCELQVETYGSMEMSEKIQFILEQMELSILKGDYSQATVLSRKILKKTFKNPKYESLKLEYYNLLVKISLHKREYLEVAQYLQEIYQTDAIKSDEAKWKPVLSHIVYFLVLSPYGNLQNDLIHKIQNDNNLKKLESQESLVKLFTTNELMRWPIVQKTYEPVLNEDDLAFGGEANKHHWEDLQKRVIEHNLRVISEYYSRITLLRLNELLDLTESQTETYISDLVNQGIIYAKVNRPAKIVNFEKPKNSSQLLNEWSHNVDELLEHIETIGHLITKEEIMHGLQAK

Rpn7 = target: T5, Rpn7 (S. cerevisiae, UniProt Q06103 1-429)
T5 sequence (looked up): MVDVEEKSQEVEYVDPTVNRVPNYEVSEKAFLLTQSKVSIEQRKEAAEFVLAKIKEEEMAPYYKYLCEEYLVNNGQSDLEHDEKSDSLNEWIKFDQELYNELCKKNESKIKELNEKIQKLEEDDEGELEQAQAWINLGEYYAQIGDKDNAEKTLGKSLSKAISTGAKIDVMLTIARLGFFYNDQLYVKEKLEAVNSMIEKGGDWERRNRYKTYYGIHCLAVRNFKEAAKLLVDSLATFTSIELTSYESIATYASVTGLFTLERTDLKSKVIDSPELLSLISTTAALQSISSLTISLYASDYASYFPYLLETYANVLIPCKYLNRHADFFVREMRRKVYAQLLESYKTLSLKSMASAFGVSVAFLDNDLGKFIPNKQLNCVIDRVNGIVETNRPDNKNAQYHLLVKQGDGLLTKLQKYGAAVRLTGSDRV

B1: Rpn10 (natural protein, S. cerevisiae, UniProt P38886 1-268, looked up)
chain: MVLEATVLVIDNSEYSRNGDFPRTRFEAQIDSVEFIFQAKRNSNPENTVGLISGAGANPRVLSTFTAEFGKILAGLHDTQIEGKLHMATALQIAQLTLKHRQNKVQHQRIVAFVCSPISDSRDELIRLAKTLKKNNVAVDIINFGEIEQNTELLDEFIAAVNNPQEETSHLLTVTPGPRLLYENIASSPIILEEGSSGMGAFGGSGGDSDANGTFMDFGVDPSMDPELAMALRLSMEEEQQRQERLRQQQQQQDQPEQSEQPEQHQDK
Rpt4
  binding result: binds
Rpt5
  binding result: binds

B2: Rpt3 (natural protein, S. cerevisiae, UniProt P33298 1-428, looked up)
chain: MEELGIVTPVEKAVEEKPAVKSYASLLAQLNGTVNNNSALSNVNSDIYFKLKKLEKEYELLTLQEDYIKDEQRHLKRELKRAQEEVKRIQSVPLVIGQFLEPIDQNTGIVSSTTGMSYVVRILSTLDRELLKPSMSVALHRHSNALVDILPPDSDSSISVMGENEKPDVTYADVGGLDMQKQEIREAVELPLVQADLYEQIGIDPPRGVLLYGPPGTGKTMLVKAVANSTKAAFIRVNGSEFVHKYLGEGPRMVRDVFRLARENAPSIIFIDEVDSIATKRFDAQTGSDREVQRILIELLTQMDGFDQSTNVKVIMATNRADTLDPALLRPGRLDRKIEFPSLRDRRERRLIFGTIASKMSLAPEADLDSLIIRNDSLSGAVIAAIMQEAGLRAVRKNRYVILQSDLEEAYATQVKTDNTVDKFDFYK
Rpn6
  binding result: binds
Rpn5
  binding result: binds
Rpn7
  binding result: binds

B3: Rpt6 (natural protein, S. cerevisiae, UniProt Q01939 1-405, looked up)
chain: MTAAVTSSNIVLETHESGIKPYFEQKIQETELKIRSKTENVRRLEAQRNALNDKVRFIKDELRLLQEPGSYVGEVIKIVSDKKVLVKVQPEGKYIVDVAKDINVKDLKASQRVCLRSDSYMLHKVLENKADPLVSLMMVEKVPDSTYDMVGGLTKQIKEIKEVIELPVKHPELFESLGIAQPKGVILYGPPGTGKTLLARAVAHHTDCKFIRVSGAELVQKYIGEGSRMVRELFVMAREHAPSIIFMDEIDSIGSTRVEGSGGGDSEVQRTMLELLNQLDGFETSKNIKIIMATNRLDILDPALLRPGRIDRKIEFPPPSVAARAEILRIHSRKMNLTRGINLRKVAEKMNGCSGADVKGVCTEAGMYALRERRIHVTQEDFELAVGKVMNKNQETAISVAKLFK
Rpn7
  binding result: binds
